Data: article PMC12084609, “Structural insights into small-molecule agonist recognition and activation of complement receptor C3aR” (The EMBO Journal, 2025)
Residue numbers refer to the chain shown, from its start. Several values for one entry are separate records, joined by “and”; a condition that tells them apart may be missing. Identical values can stand only once.

Columns and labels:
Assay type in all cases: cell-based
[1] = biological target: T1, C3aR I421^7.39A (Homo sapiens, UniProt Q16581, I421A); experiment: GloSensor-based cAMP assay, C3aR mutant I421A; details: for cAMP response (% Forskolin): I4217.39A, single replicates
T1 construct: expressed in transfected cells; host or cells: HEK293T
T1 sequence (Q16581 1-482 I421A): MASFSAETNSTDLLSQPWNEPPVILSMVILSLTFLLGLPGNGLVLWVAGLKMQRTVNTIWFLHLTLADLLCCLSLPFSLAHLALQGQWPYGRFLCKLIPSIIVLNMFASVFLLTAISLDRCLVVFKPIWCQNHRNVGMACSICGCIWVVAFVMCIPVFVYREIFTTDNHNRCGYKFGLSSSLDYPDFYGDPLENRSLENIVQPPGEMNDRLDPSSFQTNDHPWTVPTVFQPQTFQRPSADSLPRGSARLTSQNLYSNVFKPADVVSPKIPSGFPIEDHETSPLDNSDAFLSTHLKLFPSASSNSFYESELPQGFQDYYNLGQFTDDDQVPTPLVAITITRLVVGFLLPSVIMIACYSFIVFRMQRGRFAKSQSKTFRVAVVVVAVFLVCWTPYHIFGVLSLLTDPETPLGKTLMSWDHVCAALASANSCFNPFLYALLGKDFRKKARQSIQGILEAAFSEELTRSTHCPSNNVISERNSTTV
Protocol: (§1) HEK293T cells were seeded on 6-well plates (NEST) and transfected with pGlosensor™-22F plasmids (Promega) and pcDNA3.1 plasmids encoding C3aR or its mutants an with N-terminal FLAG tag. After 48 h, cells were detached with Accutase solution (Sigma-Aldrich) and washed with PBS, and resuspended in assay buffer (CO2-independent medium with 0.5 mg mL^−1D-luciferin). 100,000–200,000 cells were seeded on 96-well white bottom plates (SPL) and incubated at 37 °C for 45 min followed by 45 min incubation at room temperature. After 90 min of incubation, basal luminescence signals were recorded. In total, 25 μl of test ligand with various concentrations and 1 μM Forskolin (Sigma-Aldrich) were treated to the cells and luminescence signals were measured by Tristar 2 LB 942 multimode reader (Berthold). […] Relative luminescence unit (%) was calculated with the signal of wells treated with vehicle as 0% and the signal of wells treated with 1 μM Forskolin as 100% (DiRaddo et al, [2014]). Nonlinear regression was performed using a three-parameter logistic equation.

[2] = biological target: T2, C3aR P99^3.29A (Homo sapiens, UniProt Q16581, P99A); experiment: GloSensor-based cAMP assay, C3aR mutant P99A; details: for cAMP response (% Forskolin): P993.29A, single replicates
T2 construct: expressed in transfected cells; host or cells: HEK293T
T2 sequence (Q16581 1-482 P99A): T1 sequence (Q16581 1-482 I421A) with P99A, A421I
Protocol: as §1

[3] = biological target: T3, C3aR L30^1.39A (Homo sapiens, UniProt Q16581, L30A); experiment: GloSensor-based cAMP assay, C3aR mutant L30A; details: for cAMP response (% Forskolin): L301.39A, single replicates
T3 construct: expressed in transfected cells; host or cells: HEK293T
T3 sequence (Q16581 1-482 L30A): T1 sequence (Q16581 1-482 I421A) with L30A, A421I
Protocol: as §1

[4] = Dunnett's multiple comparisons test, WT minus mutant

C3a: anaphylatoxin C3a, natural peptide ligand of C3aR (a 77-amino acid peptide), Sigma-Aldrich
Mean Diff. of pIC50, WT vs. I421A [1, 4]: -0.119
reduction in ligand-induced signaling vs WT ([1]; I421^7.39A mutant): minor effect
ΔpIC50 ± SE of Diff. ([1]; I421^7.39A relative to WT C3aR): 0.12 ± 0.03
IC50 ([1]; I421^7.39A, dose-response plot, read-out: IC50): 2.54 nM
pIC50 (Replicate) ([1]; I421^7.39A, individual replicates): 8.63 and 8.57 and 8.45 and 8.43 and 8.89 and 8.83
pIC50 ± SEM (Mean) ([1]; I421^7.39A, mean of independent experiments): 8.61
cAMP response (% Forskolin) ([1]; Log[C3a (M)] -7): 16.32 % Forskolin and 12.05 % Forskolin and 12.43 % Forskolin and 14.57 % Forskolin and 9.51 % Forskolin and 8.99 % Forskolin and 8.25 % Forskolin
cAMP response (% Forskolin) ([1]; Log[C3a (M)] -8): 20.11 % Forskolin and 16.00 % Forskolin and 16.82 % Forskolin and 18.52 % Forskolin and 13.73 % Forskolin and 11.22 % Forskolin and 10.34 % Forskolin
cAMP response (% Forskolin) ([1]; Log[C3a (M)] -9): 77.07 % Forskolin and 83.92 % Forskolin and 80.09 % Forskolin and 92.33 % Forskolin and 88.01 % Forskolin and 57.33 % Forskolin and 61.66 % Forskolin
cAMP response (% Forskolin) ([1]; Log[C3a (M)] -10): 97.12 % Forskolin and 96.88 % Forskolin and 97.52 % Forskolin and 98.66 % Forskolin and 91.65 % Forskolin and 90.54 % Forskolin and 92.28 % Forskolin
cAMP response (% Forskolin) ([1]; Log[C3a (M)] -11): 100.24 % Forskolin and 95.23 % Forskolin and 97.32 % Forskolin and 97.61 % Forskolin and 88.75 % Forskolin and 89.55 % Forskolin and 96.90 % Forskolin
cAMP response (% Forskolin) ([1]; Log[C3a (M)] -12): 96.20 % Forskolin and 95.22 % Forskolin and 96.06 % Forskolin and 97.86 % Forskolin and 95.09 % Forskolin and 99.13 % Forskolin and 96.01 % Forskolin
Mean Diff. of pIC50, WT vs. P99A [2, 4]: 0.364
ΔpIC50 ± SE of Diff. ([2]; P99^3.29A relative to WT C3aR): -0.36 ± 0.06
IC50 ([2]; P99^3.29A, dose-response plot, read-out: IC50): 6.44 nM
pIC50 (Replicate) ([2]; P99^3.29A, individual replicates): 8.35 and 8.23 and 8.15
pIC50 ± SEM (Mean) ([2]; P99^3.29A, mean of independent experiments): 8.18
cAMP response (% Forskolin) ([2]; Log[C3a (M)] -7): 12.82 % Forskolin and 13.55 % Forskolin and 15.36 % Forskolin and 12.84 % Forskolin
cAMP response (% Forskolin) ([2]; Log[C3a (M)] -8): 28.00 % Forskolin and 35.91 % Forskolin and 53.45 % Forskolin and 42.74 % Forskolin
cAMP response (% Forskolin) ([2]; Log[C3a (M)] -9): 95.96 % Forskolin and 92.86 % Forskolin and 104.37 % Forskolin and 97.87 % Forskolin
cAMP response (% Forskolin) ([2]; Log[C3a (M)] -10): 102.35 % Forskolin and 93.68 % Forskolin and 104.69 % Forskolin and 98.88 % Forskolin
cAMP response (% Forskolin) ([2]; Log[C3a (M)] -11): 98.97 % Forskolin and 94.82 % Forskolin and 109.09 % Forskolin and 99.84 % Forskolin
cAMP response (% Forskolin) ([2]; Log[C3a (M)] -12): 103.44 % Forskolin and 97.11 % Forskolin and 100.69 % Forskolin and 103.75 % Forskolin
Mean Diff. of pIC50, WT vs. L30A [3, 4]: -0.019
ΔpIC50 ± SE of Diff. ([3]; L30^1.39A relative to WT C3aR): 0.019 ± 0.009
IC50 ([3]; L30^1.39A, dose-response plot, read-out: IC50): 2.77 nM
pIC50 (Replicate) ([3]; L30^1.39A, individual replicates): 8.56 and 8.70 and 8.57 and 8.44
pIC50 ± SEM (Mean) ([3]; L30^1.39A, mean of independent experiments): 8.57 ± 0.05 and 8.57
cAMP response (% Forskolin) ([3]; Log[C3a (M)] -7): 9.08 % Forskolin and 11.83 % Forskolin and 11.69 % Forskolin and 11.40 % Forskolin
cAMP response (% Forskolin) ([3]; Log[C3a (M)] -8): 10.54 % Forskolin and 13.47 % Forskolin and 12.71 % Forskolin and 14.92 % Forskolin
cAMP response (% Forskolin) ([3]; Log[C3a (M)] -9): 79.63 % Forskolin and 73.91 % Forskolin and 80.93 % Forskolin and 94.77 % Forskolin
cAMP response (% Forskolin) ([3]; Log[C3a (M)] -10): 98.57 % Forskolin and 99.49 % Forskolin and 94.04 % Forskolin and 99.72 % Forskolin
cAMP response (% Forskolin) ([3]; Log[C3a (M)] -11): 93.76 % Forskolin and 102.28 % Forskolin and 98.92 % Forskolin (2×)
cAMP response (% Forskolin) ([3]; Log[C3a (M)] -12): 93.05 % Forskolin and 98.36 % Forskolin and 95.43 % Forskolin and 98.17 % Forskolin
